Reference: paper PMC10636207

Target: T1, DcuR-His6 (Escherichia coli O157:H7 EDL933?) (UniProt P0AD02)
T1 sequence: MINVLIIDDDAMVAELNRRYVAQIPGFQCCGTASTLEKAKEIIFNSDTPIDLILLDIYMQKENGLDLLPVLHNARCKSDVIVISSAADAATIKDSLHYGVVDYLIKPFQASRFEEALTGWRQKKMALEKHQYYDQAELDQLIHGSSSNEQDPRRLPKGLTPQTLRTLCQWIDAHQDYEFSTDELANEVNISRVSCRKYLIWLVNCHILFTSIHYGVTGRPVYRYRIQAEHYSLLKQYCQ
Experiment: EMSA

Sequence	binding
AGATTCATCTGCAGGCTCTGAAGTAAGTATACGTGTGAATATTATTGCTTGAAAAAGCGTATTGGATAATATATACAGTATATGTACTTTATGTACATTGCAACTATTTAAATAATATAATAGTTGCCTATGGGATAATTTGGTTATTTATAACCAGGTAAATGTCTAAATTAGACAAAAGGAGAAAGATCAATGGAAGCAGCAAATTTAAGTCCTTCTGGTGCAGTAATG (double strand) [PLEE2/3]	no binding
CATTAGCCATTGGAAACTCACGTAATCATTAATTATGAATATTCCATTAAATAGTACTGTACAACAGCTTCCTTTCTACTCTATTCTTAGACGATGTAAGTTCACCATATTTTTTCTCATTGTTCAACCACCAGGATGAATAAAATTTAAAAATGTTATCCTCATATAAAATAAAACTTCTCAATGGTGCGATGCG (double strand) [PLEE4]	no binding
